According to patent US20240025971A1 (ATRECA, published 2024):
Where a chain is given by its changes, count along the chain named.

B1: AB-010020 (antibody, V domains shown)
VH: QMQLVQSGPEVKKPGTSVKVSCKASGFTFTSSAVQWVRQARGQRLEWIGWIVVGSGNTNYAQKFQERVTITRDMSTSTAYMELSSLRSEDTAVYYCAAPACSSTSCYDGFDIWGQGTMVTVSS
VL: not shown
notes: human IgG1
B2: AB-010021 (antibody, V domains shown)
VH: B1 VH with P99V, A100Y, S103G, T104G, Y107L, G109A
VL: not shown
notes: human IgG1; also called AB-0010021
B3: AB-009080 (antibody, V domains shown)
VH: QVQLQQWGAGLLKPSETLSLTCAVYGGSFSGYYWSWIRQPPGKGLEWIGEINHSGSTNYNPSLKSRVTISVDTSKNQFSLKLSSVTAADTAVYYCARGLPVTTFYYYYYGMDVWGQGTTVTVSS
VL: not shown
notes: human IgG1
B4: AB-009083 (antibody, V domains shown)
VH: EVHLLESGGGLVQPGGSLTLTCAASGFSFGNYVMGWVRQAPGKGLEWVSSIFGSGANPHYGGSVKGRFTISRDNSQNTLFLQMDSLTAEDTAVYYCARDGGTMVGGIITGGFNYFDSWGQGTLVTVSS
VL: EIVLTQSPASLSLSPGGWATLSCRASRSIGNSLAWYQQRPGQAPRLLIYDASNRATGIPARFSGSGSGTDFTLTISSLEPEDFAIYYCQQRNSWPPLYTFGQGTKLEIK
notes: human IgG1
B5: AB-009106 (antibody, V domains shown)
VH: QVQLAQSGAEVKRPGASVKVSCKASGFDLTTYGVGWVRQAPGQGLEWMGWISGSSGDTHYAQQFQDRVTMTTDTPTSTAYMELRSLRSDDTAVYYCVRENIAHYGSRTFLVRYYRGMDVWGQGTTVTVAS
VL: QSALTQPASVSGSPGQSITITCTGSSSDIGGFDFVSWYQQYPGKAPKLVISEVTNRPSGVSIRFSGSKSGNTASLTISGLQAEDEADYYCSSYASSYPTTNTRVFGTGTKVTVL
notes: human IgG1
B6: AB-009110 (antibody, V domains shown)
VH: QVQLVQSGAEVKEPGASVKVSCNASGYIFTSYGISWVRQAPGQGLEWVGWISGNNGNTNYAQKFQGRVTLTTDTSTSTAYLELRSLTSADTGVYFCARARLPSAYWGPGTLLTVSS
VL: EILLTQSPATLSVSPGERGSLSCRASQSVGTNLAWYQQKPGQAPRLLIYGASARATGIPARFSGSGSGTEFTLTISSLQSEDFGVYYCQQYNDWPPWTFGQGTKVEIK
notes: human IgG1
B7: AB-009226 (antibody, V domains shown)
VH: not shown
VL: QSALTQPASVSGSPGQSITISCTGTSSDVGGYNYVSWYQQHPGKAPKLMIYEVSNRPSGVSNRFSGSKSGNTASLTISGLQAEDEADYYCSSYTSSSTLYVFGTGTKVTVL
notes: human IgG1
B8: AB-009251 (antibody, V domains shown)
V domain 1: QVQLVQSGAEVKKPGASVKVSCKTSGYTFTTFYIHWVRQVPGQGLEWMGIINPDGGSTNYAQEFQARVTMTTDTSTSTAYMELSSLRFEDTAVFYCATSLGAPPGLSPRTGPQRRGPPGFDFWGQGTLITVSA
V domain 2: QSVLTQPPSVSGAPGQRVTISCTGSSSNIGAGYDVHWYQQLPGTAPKLLIFDNNNRPSGVPYRFSGSRSGTSASLAITGLQPEDEADYYCQSYDSSLSGRVFGGGTRVTVL
notes: human IgG1
B9: AB-009665 (antibody, V domains shown)
VH: QVQLVQSGAEVKKPGASVKVSCKVSGYTLIELSMHWVRQAPGKGLEWMGGFDPEDGETIYAQKFQGRVTMTEDTSTDTAYMELSSLRSEDTAVYYCAAARVFGVATWFDPWGQGTLVTVSS
VL: QSVLTQPPSVSAAPGQKVTISCSGSSSNIGNNYVSWYQQLPGTAPKLLIYDNNKRPSGIPDRFSGSKSGTSATLGITGLQTGDEADYYCGTWDSSLSAGVFGGGTKLTVL
notes: human IgG1
B10: AB-009078 (antibody, V domains shown)
VH: QITLKESGPTLVKPTQTLTLTCTFSGFSLSTSGVGVGWIRQPPGKALEWLALIYWDDDKRYSPSLKSRLTITKDTSKNQVVLTMTNMDPVDTATYYCAHRPGDFWSGYYRYWGQGTLVTVSS
VL: not shown
notes: human IgG1
B11: AB-009095 (antibody, V domains shown)
VH: EVQLVQSGAEVKKPGESLIISCTGSGYTFATFWITWVRQMPGKGLEWLGRIDPSDSYTNYNPSFQGHVTVSVDRSINTAYLELTSLKASDTAIYYCARQMYNTGWPIPNYSDYWGQGTLVTVSS
VL: QSALTQPPSASGSPGQSVTISCAGASTDVGVYNFVSWYQQHPGKAPKLIIFDVNKRPSGVPDRFSGSKSGNTASLTVSGLQAEDEADYYCSSYEVGNNFVFGTGTKVTVL
notes: human IgG1
B12: AB-009119 (antibody, V domains shown)
VH: EVQLVESGGGLVQPGGSLKLSCAASGFTFSGSAMHWVRQASGKGLEWVGRIRSKANSYATAYAASVKGRFTISRDDSKNTAYLQMNSLKTEDTAVYYCTRHGTTVNWGQGTLVTVSS
VL: not shown
notes: human IgG1
B13: AB-009221 (antibody, V domains shown)
VH: EVQLVESGGGLVQPGGSLRLSCAASGFTVSSNYMSWVRQAPGKGLEWVSVIYSGGSTYYADSVKGRFTISRHNSKNTLYLQMNSLRAEDTAVYYCARDRNAFDIWGQGTMVIVSS
VL: DIQMTQSPSSLSASVGDRVSITCQASQDISNDLNWYQQKPGKAPKLLVYDASKLETGVPPRFSGSGSGTDFTFTISSLQPEDIATYYCQQYDNLPLYSFGQGTKLEIK
notes: human IgG1
B14: AB-009174 (antibody, V domains shown)
VH: QVQLQQWGAGLLKPSETLSLTCAVYGESFSGYYWNWIRQPPGKGLEWIGEIDQSGSTNYNPSLKSRVTISVDTSKNQFSLKLTSVTAADTAVYYCARVSGRMQLWLRAGYMDVWDKGTTVTVSS
VL: QSALTQPASVSGSPGQSITISCTGTSSDVGRYNYVSWYQQHPGKAPKLMIYEVSNRPSGVSNRFSGSKSGNTASLTISGLQAEDEADYYCSSYTTSSTRVFGGGTKLTVL
notes: human IgG1
B15: AB-009202 (antibody, V domains shown)
VH: QVQLVESGGGVVQPGRSLRLSCAASGFTFSSYGMHWVRQAPGKGLEWVAVIWYDGSNKYYADSVKGRFTISRDNSKNTLYLQMNSLRAEDTAVYYCARDGGPEYYFDYWGQGTLVTVSS
VL: SYELTQPPSVSVSPGQTARITCSGDALPKQYAYWYQQKPGQAPVLVIYKDSERPSGIPERFSGSSSGTTVTLTISGVQAEDEADYYCQSADSSGTYNVVFGGGTKLTVL
notes: human IgG1
B16: AB-009231 (antibody, V domains shown)
VH: EVQLVESGGGLVQPGGSLRLSCAASGFTFSSYWMSWVRQAPGKGLEWVANIKQDGSEKYYVDSVKGRFTISRDNAKNSLYLQMNSLRAEDTAVYYCARVSMRFLEWSFYYYYYMDVWGKGTTVTVSS
VL: SSELTQDPAVSVALGQTVRITCQGDSLRSYYASWYQQKPGQAPVLVIYGKNNRPSGIPDRFSGSSSGNTASLTITGAQAEDEADYYCNSRDSSGNHLGVVFGGGTKLTVL
notes: human IgG1
B17: AB-009237 (antibody, V domains shown)
VH: QVQLLQSGAEVKKPGASVSVSCKASGFTFTSYYFHWVRQAPGQGLEWMGIVSPAGGSTNYAQKFQGRVTMTRDTSTSTVHMELRNVRYDDTAVFYCARSVYCSSPSCPHGMDVWGPGTMVTVSS
VL: DIQVTQSPSTLSASVGDRVTITCRASQSILTYLAWYQQKPGKAPNLLIYKASNLQSGVPSRFSGSGSGTEFTLTISSLQPDDFATYHCQQYKSYPFSFGQGTKLAIK
notes: human IgG1
B18: AB-009239 (antibody, V domains shown)
VH: QVHLEESGGGVVQPGRSLRLSCAASGFTFSGYAMHWVRQAPGKGLAWVAVISYDGTNKYYTDSVKGRFSISRDNSNNTLYLQMNSLRTEDTALYYCARALTGYYGQFDFDSWGQGTLVTVSS
VL: DVVMTQSPLSLPVTLGQPASISCRSSQSLVHSDGHTYLNWIQQRPGQSPRRLIYKVSNRDSGVPDRFSGSGSGTDFTLKISRVEADDVGIYYCVQGTHWPPWTFGQGTKVEIK
notes: human IgG1
B19: AB-009244 (antibody, V domains shown)
VH: EVQLVESGGGLVQPGGSLRLSCAASGFAFNTYGINWVRQAPGKGLEWVSFISSRSTTIHYADSVRGRFTISRDNAKNSLYLQMNNLRDEDTAVYYCARDLLIWFGETGAFDIWGQGTMVTVSS
VL: EVVMTQSPATLSVSSGERVTLSCRASQSVSNNLAWYQQKPGQAPRLLIYGASTRATGFPARFSGSGSGTEFTLTISSLQSEDFAVYYCQQYNIWPPGTFGQGTKLEIK
notes: human IgG1

What was measured:
[1] = biological target: SARS-CoV-2 Wuhan-1 full-length Spike protein (SARS-CoV-2, UniProt P0DTC2 14-1273); assay: cell-based or functional assay
[2] = biological target: SARS-CoV-1 spike (pseudovirus) (SARS-CoV-1, UniProt P59594 14-1255); assay: cell-based or functional assay
SARS-CoV-2 S2 protein = biological target: T1, SARS-CoV-2 S2 protein (SARS-CoV-2, UniProt P0DTC2 686-1213); assay: BLI
T1 construct: domain: S2 protein; also called S2 monomer

[3] = biological target: T2, SARS-CoV-2 Spike (S) trimer (SARS-CoV-2, UniProt P0DTC2 14-1208); assay: ELISA, S trimer coated, 1:50 dilution
T2 construct: also called Spike trimer

[4] = biological target: SARS-CoV-2 Nucleocapsid (N) protein (SARS-CoV-2, UniProt P0DTC9 1-419); assay: BLI
SARS-CoV-2 S1 protein = biological target: T3, SARS-CoV-2 S1 protein (SARS-CoV-2, UniProt P0DTC2 16-685); assay: BLI
T3 construct: domain: S1 protein; also called S1 monomer

[5] = biological target: T4, SARS-CoV-2 Receptor Binding Domain (RBD) (SARS-CoV-2, UniProt P0DTC2 319-541); assay: BLI
T4 construct: also called RBD protein

Binder	binding result (SARS-CoV-2 S2 protein)	Optical Density (OD; 450 nm) [3] [OD450]	binding result [4]	binding result (SARS-CoV-2 S1 protein)	other results
B1	no binding (tested: 300 nM)				Pseudovirus Neutralization [1]: 0.004 µg/mL; Pseudovirus Neutralization [2]: > 50 µg/mL
B2	no binding (tested: 300 nM)				Pseudovirus Neutralization [1]: 1.56 µg/mL; Pseudovirus Neutralization [2]: > 50 µg/mL
B3		0.166			
B4		0.249			
B5		0.1			
B6		0.081			
B7		2.33			
B8	no binding (tested: 300 nM)	0.886	no binding (tested: 300 nM)		
B9	no binding (tested: 300 nM)	1.38		no binding (tested: 300 nM)	binding result [5]: no binding (tested: 300 nM)
B10				no binding (tested: 300 nM)	binding result [5]: no binding (tested: 300 nM)
B11				no binding (tested: 300 nM)	binding result [5]: no binding (tested: 300 nM)
B12				no binding (tested: 300 nM)	binding result [5]: no binding (tested: 300 nM)
B13	no binding (tested: 300 nM)		no binding (tested: 300 nM)		
B14	no binding (tested: 300 nM)		no binding (tested: 300 nM)	no binding (tested: 300 nM)	
B15	no binding (tested: 300 nM)		no binding (tested: 300 nM)	no binding (tested: 300 nM)	
B16	no binding (tested: 300 nM)		no binding (tested: 300 nM)	no binding (tested: 300 nM)	
B17	no binding (tested: 300 nM)		no binding (tested: 300 nM)	no binding (tested: 300 nM)	
B18	no binding (tested: 300 nM)		no binding (tested: 300 nM)	no binding (tested: 300 nM)	
B19	no binding (tested: 300 nM)		no binding (tested: 300 nM)	no binding (tested: 300 nM)	
